This is an account of results in PMC9820253, “Integration Host Factor Binds DNA Holliday Junctions”.

Numbering of substitutions follows the chain as printed. Some results are limits rather than exact numbers.

Series [1] deals with T1, Integration Host Factor (IHF) (Escherichia coli (purified from E. coli …, UniProt P0A6X7;P0A6Y1 1-99;1-94)). Put plainly: EMSA; 1 mM Mg2+; apparent; 5 mM Tris-HCl pH 7.4-7.6, 70 mM KCl, 0.1 mM EDTA, 0.5-10% ethylene glycol, fluorescence at 10 C; Mg buffer: 5 mM Tris-HCl pH 7.4, 1 mM MgCl2, 10% ethylene glycol; stopped flow 20 C with 0.01% NP-40. The following applies: protein: recombinant; copies: 1;1; label: none for EMSA (SYBR Green); 5' TAMRA for fluorescence intensity; donor-acceptor pair for stopped flow; four-way junction of 4 strands (20 nt), four 10 bp arms.

Series [2] deals with T1, Integration Host Factor (IHF). Put plainly: EMSA; 70 mM KCl; apparent; 5 mM Tris-HCl pH 7.4-7.6, 70 mM KCl, 0.1 mM EDTA, 0.5-10% ethylene glycol, fluorescence at 10 C; Mg buffer: 5 mM Tris-HCl pH 7.4, 1 mM MgCl2, 10% ethylene glycol; stopped flow 20 C with 0.01% NP-40. The following applies: protein: recombinant, copies: 1;1, label: none for EMSA (SYBR Green).
The target is the same in series [3]. In words: fluorescence anisotropy; 1 mM Mg2+?; 5 mM Tris-HCl pH 7.4-7.6, 70 mM KCl, 0.1 mM EDTA, 0.5-10% ethylene glycol, fluorescence at 10 C; Mg buffer: 5 mM Tris-HCl pH 7.4, 1 mM MgCl2, 10% ethylene glycol; stopped flow 20 C with 0.01% NP-40. The following applies: protein: recombinant; copies: 1;1; label: none for EMSA (SYBR Green); 5' TAMRA for fluorescence intensity; donor-acceptor pair for stopped flow; four-way junction of 4 strands (20 nt), four 10 bp arms.

The target is the same in series [4]. Put plainly: fluorescence intensity; 70 mM KCl; 5'-TAMRA; 5 mM Tris-HCl pH 7.4-7.6, 70 mM KCl, 0.1 mM EDTA, 0.5-10% ethylene glycol, fluorescence at 10 C; Mg buffer: 5 mM Tris-HCl pH 7.4, 1 mM MgCl2, 10% ethylene glycol; stopped flow 20 C with 0.01% NP-40. The following applies: protein: recombinant; copies: 1;1; label: none for EMSA (SYBR Green); 5' TAMRA for fluorescence intensity; donor-acceptor pair for stopped flow; four-way junction of 4 strands (20 nt), four 10 bp arms.

The target is the same in series [5]. In words: EMSA; 70 mM KCl, no Mg2+; 5 mM Tris-HCl pH 7.4-7.6, 70 mM KCl, 0.1 mM EDTA, 0.5-10% ethylene glycol, fluorescence at 10 C; Mg buffer: 5 mM Tris-HCl pH 7.4, 1 mM MgCl2, 10% ethylene glycol; stopped flow 20 C with 0.01% NP-40. The following applies: protein: recombinant; copies: 1;1; label: none for EMSA (SYBR Green); immobile four-way junction of 4 strands (34 nt), four 17 bp arms.

Series [6] has the same target. In words: fluorescence intensity; 70 mM KCl; end-labeled; 5 mM Tris-HCl pH 7.4-7.6, 70 mM KCl, 0.1 mM EDTA, 0.5-10% ethylene glycol, fluorescence at 10 C; Mg buffer: 5 mM Tris-HCl pH 7.4, 1 mM MgCl2, 10% ethylene glycol; stopped flow 20 C with 0.01% NP-40. The following applies: protein: recombinant, copies: 1;1, label: none for EMSA (SYBR Green), immobile four-way junction of 4 strands, four 17 bp arms.

Series [7] shares this target. Put plainly: fluorescence intensity; 70 mM KCl; 0.5 nM DNA; printed as <=2.2; 5 mM Tris-HCl pH 7.4-7.6, 70 mM KCl, 0.1 mM EDTA, 0.5-10% ethylene glycol, fluorescence at 10 C; Mg buffer: 5 mM Tris-HCl pH 7.4, 1 mM MgCl2, 10% ethylene glycol; stopped flow 20 C with 0.01% NP-40. The following applies: protein: recombinant; copies: 1;1; label: 6-MI; immobile four-way junction of 4 strands (34 nt), four 17 bp arms.

Series [8] shares this target. Put plainly: fluorescence anisotropy; 70 mM KCl; 2 nM DNA; 5 mM Tris-HCl pH 7.4-7.6, 70 mM KCl, 0.1 mM EDTA, 0.5-10% ethylene glycol, fluorescence at 10 C; Mg buffer: 5 mM Tris-HCl pH 7.4, 1 mM MgCl2, 10% ethylene glycol; stopped flow 20 C with 0.01% NP-40. The following applies: protein: recombinant; copies: 1;1; label: fluorescein (end); immobile four-way junction of 4 strands (34 nt), four 17 bp arms.

T1 sequence (P0A6X7 whole entry, chain 1 of 2): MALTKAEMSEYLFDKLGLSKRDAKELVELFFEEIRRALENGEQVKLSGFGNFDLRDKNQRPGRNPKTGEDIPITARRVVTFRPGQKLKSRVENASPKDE
T1 sequence (P0A6Y1 whole entry, chain 2 of 2): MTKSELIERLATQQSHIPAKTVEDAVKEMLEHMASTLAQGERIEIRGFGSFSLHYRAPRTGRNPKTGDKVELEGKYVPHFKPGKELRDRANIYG

B1: J20 junction (structured_DNA)
DNA 1: CCACCGCTCAACTCAACTGC
DNA 2: GCAGTTGAGTCCTTGCTAGG
DNA 3: CCTAGCAAGGGGCTGCTACC
DNA 4: GGTAGCAGCCTGAGCGGTGG
With B1, the Kd in series [1] came to 514 ± 141 nM; in series [2] (5' TAMRA for fluorescence intensity, donor-acceptor pair for stopped flow, four-way junction of 4 strands (20 nt), four 10 bp arms), 170 ± 40 nM; in series [3] it was 43 ± 11 nM; in series [4] it was 4.4 ± 0.5 nM.

B2: J34 junction (structured_DNA)
DNA 1: CCTTCAACCACCGCTCAACTCAACTGCAGTCTGG
DNA 2: CCAGACTGCAGTTGAGTCCTTGCTAGGACGGAGG
DNA 3: CCTCCGTCCTAGCAAGGGGCTGCTACCGGAAGGG
DNA 4: CCCTTCCGGTAGCAGCCTGAGCGGTGGTTGAAGG
Consider B2, for which the Kd in series [5] came to 58 ± 36 nM.

B3: JH1 junction (structured_DNA)
DNA 1: CCTTCAACCACCGCTCATGATTACTGCAGTCTGG
DNA 2: CCAGACTGCAGTAATCAACTACTTAGGACGGAGG
DNA 3: B2 DNA 3 with G12A, C13G, A14T, G17T
DNA 4: B2 DNA 4 with C22T
As to B3, the Kd in series [2] (end label for fluorescence, immobile four-way junction of 4 strands, four 17 bp arms) was 65 ± 8 nM; in series [6], 9.2 ± 2 nM.

B4: J34 junction, 6-MI labeled (structured_DNA)
DNA 1: B2 DNA 1
DNA 2: B2 DNA 2
DNA 3: B2 DNA 3
DNA 4: B2 DNA 4
modifications: 6-methylisoxanthopterin (6-MI) nucleoside
Consider B4, for which, in series [7], the Kd was less than 2.2 nM.

B5: J34 junction, fluorescein end-labeled (structured_DNA)
DNA 1: B2 DNA 1
DNA 2: B2 DNA 2
DNA 3: B2 DNA 3
DNA 4: B2 DNA 4
For B5, the Kd in series [8] was found to be 2 nM.
